The data set is described as follows: amyloid nucleation score (Sup35N fusion, yeast selection) (log enrichment); library NNK1; higher = more nucleation; inactive = no reads after selection. The procedure, abridged:
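Plasmid inserts were Illumina-sequenced at input and output from psi-negative yeast expressing Sup35N fused to peptides of 20 random codons. The yeast were induced with 100 μM copper sulfate for 24 hours and grown 7 days at 30°C on medium lacking adenine and uracil, and sequences with under 100 input reads were excluded. Nucleation score is the DiMSum log enrichment of output over input reads, centred on the mode score of non-aggregating sequences.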

± gives the uncertainty stated by the source.

On to KPDSMFDFER, for which the amyloid nucleation score is -0.675 ± 1.3.

Regarding TCYLSDSLASY, the amyloid nucleation score is -0.328 ± 0.54.

ASLTFFS showed an amyloid nucleation score of 0.283 ± 0.76.

For KVFWLYPMNLS, the amyloid nucleation score came out at 0.278 ± 0.65.

In turn, GEKYNIFNFGFVLCSSLVLF displayed an amyloid nucleation score of 8.116 ± 0.049.

LLVCSMHFISMTPVMPNSTA showed an amyloid nucleation score of 2.12 ± 0.24.

Substance VNSCFSQYYKGHPTLMHERL registered an amyloid nucleation score of 0.01 ± 0.39.

NCIGMFAIDLTKDQFRGDFR yielded an amyloid nucleation score of 2.73 ± 0.31.

RLGRNVNEHRVPLVLACVED yielded an amyloid nucleation score of 0.964 ± 0.93.

As for SLVSYSVHANFCVFIWTNGS, the amyloid nucleation score stood at 1.25 ± 0.44.

Turning to FCNVQIFFAVITHPFYSTLL, the amyloid nucleation score stood at 1.48 ± 0.24.

As for APDDSRQCSETESSGFLTHW, the amyloid nucleation score stood at 0.366 ± 0.47.

With VMAMSMLYSLMRNGKKLHFK, the amyloid nucleation score was found to be 1.67 ± 0.6.

For the substance FMLWCQFKRDNIKRTDRLAV, the amyloid nucleation score is 1.46 ± 0.78.

Turning to YLAQL, the amyloid nucleation score amounted to 0.558 ± 0.43.

The substance GISLSLVVERSGK came in with an amyloid nucleation score of 1.49 ± 0.21.

Take VYASSCMLGTWLSDSTSGCS: the amyloid nucleation score was 0.371 ± 0.69.

Turning to TVHTLSIFFSGRAFAANPFS, the amyloid nucleation score came to 2.36 ± 0.16.

With HRNRFYVVLYRNLDLWL, the amyloid nucleation score is -0.197 ± 0.23.

As to ALSGCERRNHLSCRSNLRDG, the amyloid nucleation score was -0.542 ± 0.91.

For the substance QKSIDLYFEKRHTISTQNR, the amyloid nucleation score was -0.455 ± 0.56.

As to KSCDSESFYGDTRSFHTDSV, the amyloid nucleation score was -1.5 ± 1.3.

In the case of IVVFFAPDFCGRQLYDKSKS, the amyloid nucleation score was found to be 4.85 ± 0.11.

On to CPGNIIYTFPIDVPKHG, for which the amyloid nucleation score stood at 0.641 ± 0.79.

Take GLVSRLCRFHFMCIACNPKL: the amyloid nucleation score was found to be 0.585 ± 0.43.

As to FIFSAVGRNN, the amyloid nucleation score is -0.411 ± 0.57.

FWYSNIYSIFMLPVIVWEPN gave an amyloid nucleation score of 6.515 ± 0.053.

The substance VCMTTLCWISSGVGFLHWSS returned an amyloid nucleation score of 3.98 ± 0.068.

Consider QCVFYMWVSFEELK, for which the amyloid nucleation score was 0.418 ± 0.97.

For the substance SFCPSMSNYTCIFPSTNLTY, the amyloid nucleation score came to 7.033 ± 0.053.

SLLTRDVYNRRAR: the amyloid nucleation score is -0.562 ± 0.36.

TDARTR displayed an amyloid nucleation score of 1.15 ± 0.36.

With RHSFGLFVSRLVRFREDGYY, the amyloid nucleation score is -0.508 ± 0.52.

Take MDAFPEFLGVVFHSDDFGVP: the amyloid nucleation score is -0.209 ± 0.39.

The substance CTTLGLQPFRDWRFAGKLAR yielded an amyloid nucleation score of 0.049 ± 1.1.

Regarding ITVGEYVNHCSG, the amyloid nucleation score was determined as 0.224 ± 1.4.

In the case of LVPSWRVFVQHLGLFRAL, the amyloid nucleation score turned out to be 0.333 ± 0.7.

For the substance YRLDFGWTMH, the amyloid nucleation score was 0.3 ± 0.31.

Turning to VIQHIYAKDSNCSHLV, the amyloid nucleation score was -0.529 ± 0.52.

Take FCNTLCAFW: the amyloid nucleation score is 1.91 ± 0.22.

As for RKLFDCGINACSLRYVTSYR, the amyloid nucleation score result is “inactive”.

As for RLSHKNGVCTLAFIYVPDNA, the amyloid nucleation score result is “inactive”.

Consider MGSVVHRKVEVHGRFKCGAT, for which the amyloid nucleation score amounted to 0.477 ± 0.93.

On to DLRFSTRLGHCISVFMRKIW, for which the amyloid nucleation score entry is “inactive”.

Take WASELVRHHNDKINCSLRCG: the amyloid nucleation score was -0.253 ± 0.84.

The substance YGFSNYRMIVQLYNLFSMYD had an amyloid nucleation score of 3.04 ± 0.21.

As for RQGLSAGSRYIK, the amyloid nucleation score is -0.311 ± 0.69.

In the case of LPFMTHVHVLSRQKTKVKGR, the amyloid nucleation score is -0.041 ± 0.28.

NCVTTNIGFN had an amyloid nucleation score of 0.124 ± 0.9.

For SKSCFFKQYLTSIIYLHTKK, the amyloid nucleation score stood at 0.418 ± 0.32.

For the substance RYCYRGHMFLFQTSLFKCSS, the amyloid nucleation score is -0.354 ± 0.83.

With NPAEL, the amyloid nucleation score was 0.222 ± 0.54.

Take TLFMRVGYR: the amyloid nucleation score is 3.87 ± 0.12.

The substance RPTYMCSGTGDFLHFVFR came in with an amyloid nucleation score of 4.64 ± 0.053.

In turn, SMLMFIQIV gave an amyloid nucleation score of 1.96 ± 0.1.

The substance STHCFWVTPGD displayed an amyloid nucleation score of 0.483 ± 0.83.

The substance QSSSLHKHSFTHVVSQNEGG displayed an amyloid nucleation score of 0.543 ± 0.26.

Substance TGLWNRIEVPVDKTEAKQPV yielded an amyloid nucleation score of 0.076 ± 0.42.

MSLYTDNWGNKGRTSLNYSS yielded an amyloid nucleation score of 0.455 ± 0.51.

NWEWAFRCPLWCLWDYRSTM gave an amyloid nucleation score of 0.751 ± 0.57.

Regarding LVFVFWLKVEPPMLSTCMSK, the amyloid nucleation score was -1.16 ± 2.7.

The substance GNTWNIMFNICCLQGIECCL came in with an amyloid nucleation score of 7.349 ± 0.051.

Turning to NYRIRAWGNNYGHQGATCLR, the amyloid nucleation score entry was “inactive”.

Substance YMNNRLRWNRRHPYLSCFMS gave an amyloid nucleation score of 1.1 ± 0.94.

The substance YLRKIRVLNMGAAAEKALLG gave an amyloid nucleation score of 0.641 ± 0.68.

As for LCVNERVHQSLSRQRIPNCL, the amyloid nucleation score was found to be 1.26 ± 0.61.

As for LVNYLICWT, the amyloid nucleation score is -0.078 ± 0.82.

NSEISRGGVMGVCAVLLMSF: the amyloid nucleation score was 0.273 ± 0.97.

For the substance EQVSKMGNTCMSVDRVRWQN, the amyloid nucleation score is -0.411 ± 0.87.

As for CLVYSTYIDGQTLAKTF, the amyloid nucleation score is -0.761 ± 1.2.

For RMFWANLQVSVNFGDKRVKY, the amyloid nucleation score was 4.13 ± 0.091.

As to ASYTIND, the amyloid nucleation score was -0.57 ± 1.1.

As for MADEWLCQKCGSRVT, the amyloid nucleation score is -0.207 ± 0.59.

The substance NYIVKAFSVVCFTSDTSSFR yielded an amyloid nucleation score of 6.08 ± 0.096.

SNQAHSMLISTIIMILGCYC had an amyloid nucleation score of 0.419 ± 0.34.

Take TAAGSNQSEAFFFTNIISE: the amyloid nucleation score came to 0.078 ± 0.84.

In the case of LMKGTYFIMCNLLAYECLTR, the amyloid nucleation score came to 2.78 ± 0.14.

On to KVLILCAT, for which the amyloid nucleation score came out at 1.1 ± 0.62.

Substance ILFFRRCISVGLL had an amyloid nucleation score of 3.33 ± 0.12.

MQFLVVLCQCQFLNRVRGCA yielded an amyloid nucleation score of 1.5 ± 0.35.

Consider AGHLGWARFVYTLLSEDTVH, for which the amyloid nucleation score turned out to be 0.031 ± 0.79.

On to FLGLLVPFFNWRDKKRKYSG, for which the amyloid nucleation score is 0.012 ± 0.79.

For the substance LYAIYTAFNRVSSYSNMPVM, the amyloid nucleation score is -0.599 ± 0.92.

With RSVRLMNRVSGWNMWWKDGT, the amyloid nucleation score was -0.535 ± 1.2.

Take GWAGRVCNRGKTWDIDLRQR: the amyloid nucleation score was -0.7 ± 0.34.

With LPWYSSQMRADVSTPERWFL, the amyloid nucleation score is -0.224 ± 0.7.

As for VDKNMFI, the amyloid nucleation score is -0.021 ± 1.2.

In turn, WLRMYLGINFSVRYCGRRVE registered an amyloid nucleation score of 0.465 ± 0.48.

QIAVWPSYFSGDIGDMSRKG: the amyloid nucleation score was 0.017 ± 0.56.

With SKRMNGRNP, the amyloid nucleation score came to 0.153 ± 0.47.

On to ILMMPLIESCMEVLGHPS, for which the amyloid nucleation score amounted to 0.873 ± 0.51.

On to KMATRINGWCDGASATTV, for which the amyloid nucleation score was -0.154 ± 0.74.

In the case of LKRVGSNLNT, the amyloid nucleation score was -0.229 ± 1.4.

In turn, VVCRVNTSVMGFKSNCRLGV came in with an amyloid nucleation score of 0.624 ± 0.6.

On to RMFCPHCDYLVSVFSWNPRC, for which the amyloid nucleation score came to 1.54 ± 0.57.

The substance FHHTKSGS yielded an amyloid nucleation score of 1.67 ± 0.57.

In turn, RPVWHSFHMVFWNSASY had an amyloid nucleation score of 0.172 ± 0.45.

Take QRFHFLNRL: the amyloid nucleation score is -0.411 ± 1.1.

In turn, SYYDSQYGLYGESVCL had an amyloid nucleation score of 0.738 ± 0.72.

For the substance QLVGFVVPRRSSPGVHTGEC, the amyloid nucleation score was determined as 1.21 ± 0.53.

In turn, IKLGVFRIKSSFN yielded an amyloid nucleation score of 0.708 ± 0.34.

Turning to RAQYYYICRWRYYTWPVPR, the amyloid nucleation score is -0.515 ± 1.

YMGHDC: the amyloid nucleation score worked out at 0.011 ± 0.21.

In the case of YHIMGFSSYGGVVRWMSS, the amyloid nucleation score was -0.312 ± 0.36.

In the case of ASGDMSDWISWLGSMRCKIR, the amyloid nucleation score was -0.082 ± 1.

In the case of YIDEIY, the amyloid nucleation score is -0.759 ± 0.35.

With HMVFC, the amyloid nucleation score was -0.446 ± 0.33.

Consider PIRVM, for which the amyloid nucleation score was -0.495 ± 0.43.

On to FYHKTFVYKEGLNGAALLGM, for which the amyloid nucleation score was -0.023 ± 0.48.

CSRVVWLVIRLLEMWIEPRA registered an amyloid nucleation score of 0.815 ± 0.73.

In the case of WVAWTYMENLSCLYFETATM, the amyloid nucleation score is -0.593 ± 0.57.

As to YWRVVGITIWVVQDLIFGEG, the amyloid nucleation score is -0.783 ± 1.

The substance YLRFTV came in with an amyloid nucleation score of 2.57 ± 0.27.

IMKYPETGLAGRLLTGYTLS: the amyloid nucleation score came out at 0.633 ± 0.61.

Substance VTRVRFGSVWGSQVHRNFVM came in with an amyloid nucleation score of 0.212 ± 0.4.

As to WCLESINFRRMCMASSG, the amyloid nucleation score turned out to be 0.893 ± 0.41.

Turning to TCRKTTMQRRSTHNLVKCDE, the amyloid nucleation score is -1.47 ± 2.7.

Regarding CLSNM, the amyloid nucleation score result was “inactive”.

VQYLMWSFTVAKLVMQDYHG showed an amyloid nucleation score of 0.835 ± 0.43.

Take DRAGERMGIR: the amyloid nucleation score is 0.13 ± 0.28.

VVELASLEGGHELTNWVNLV yielded an amyloid nucleation score of 0.231 ± 0.59.

In the case of KPTLGVILTTTTFTRSCLYY, the amyloid nucleation score is -0.252 ± 0.73.

On to KVVSGA, for which the amyloid nucleation score came out at 0.879 ± 0.53.

Substance KWVHEIRSSMVCVYLAGNSR gave an amyloid nucleation score of 0.677 ± 0.79.

Consider GDYVRWVRSGYLMQLLNEDS, for which the amyloid nucleation score was -0.379 ± 0.75.

GMCSEGTFKRQLISMHTCRT showed an amyloid nucleation score of 0.247 ± 0.79.

In the case of VLILELDGS, the amyloid nucleation score is -1.11 ± 2.7.

For the substance MAGPYLVERRSMWASNARAE, the amyloid nucleation score is -1.07 ± 1.4.

Take MFVFFSTMSIR: the amyloid nucleation score entry was “inactive”.

IFITCIARTLYHAGNLQRNL yielded an amyloid nucleation score of 2 ± 0.11.

For WYGDSPECEV, the amyloid nucleation score worked out at 0.141 ± 0.73.

The substance DMLFPAMRYAVHDVSVSAGN yielded an amyloid nucleation score of 0.582 ± 0.64.

Substance DVFGLLSIYYR came in with an amyloid nucleation score of 1.1 ± 0.57.

Turning to VPYVRMNVR, the amyloid nucleation score is 2.24 ± 0.14.

As for KYASVGASFVWC, the amyloid nucleation score is 0.102 ± 0.34.

On to PQSFWNARCPCPLNRLNGVW, for which the amyloid nucleation score is -0.474 ± 0.34.

NYYCRDVI: the amyloid nucleation score worked out at 0.392 ± 0.3.

Turning to TWCIAVVSEILLLHI, the amyloid nucleation score result is “inactive”.

Take FKVTFNRDVPNESSTALCSV: the amyloid nucleation score was -1.01 ± 1.7.

ARRASVEFSYSTLERGMWRC: the amyloid nucleation score was determined as 1.9 ± 0.18.

With FLLDMV, the amyloid nucleation score was -0.175 ± 0.45.

(Values after the supplement of paper PMC12042874.)
